experiment: yeast display, Sf9 membrane polyspecificity reagent, FACS + sequencing; frameworks hold sequencing errors
Procedure, shortened: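 Nanobodies came from a synthetic yeast display library in Saccharomyces cerevisiae BJ5465, induced with galactose for 36–48 hours and stained for 1 hour at 4 °C with 10% biotinylated, detergent-solubilized Sf9 membrane reagent. Cells were enriched on streptavidin microbeads and then FACS-sorted, with low and high (top ~1%) gates set on anti-HA fluorescence for expression and streptavidin fluorescence for reagent binding. Each polyreactivity label reflects the gate a clone came from. Genes were amplified by colony PCR, sequenced by MiSeq 2 × 250 and filtered by CDR length.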

| Sequence | polyreactivity (PSR sort gate) |
| --- | --- |
| QVQLVESGGGLVQAAGSLRLSCAASGFIFRYNVMGWYRQAPGKERELVAAISTSGGRTYFADSEKGRFTISRDNAKNTGYLQMNSLKPEDTEVYYCNAVKSEGQKVRDGYYWGQGTQVTVSS | high polyreactivity |
| QVHLQECGDGLVQALGSQRLSCAARCYISGYYYMGWYRQAPGKERELVAGIDAFGSSTNYADCVKGRFTISRYNAKNTVYLQMKSLKPEDTALYYCAARPDGDRLFSYWGQGTQVTVFS | low polyreactivity |
| QVQLVESGVGLVQAGGSLRLSCAASGFIIRTYAMGWYIQAPGKERELVATITGDGSTNYADSVKGRFTISRDNAKNTVYLQMNSLKPEDTAVYYCSRDDRLAVDYWGQGTQVTVSS | low polyreactivity |
| QVQLVESGGGLVQAGGSLRLSCAASGRIFTRYAMGWYRQAPGKERELVAVITRSGGSTYYADSVKGRFTISRDNAKNNVDLQMNSLKPEDTAVYYCAAKYYGEMYYWGQGTQVTVSS | low polyreactivity |
| QVQLVESGGGLVQAGGSLRLSCAASGRTFSQNAMGWYRQAPGKERELVAAISWSGGRTYYADSVKGRFTISRDNAKNTVYLQMNSLKPEDTAVYYCAKSQHRTYYYWGQGTQVTVSS | high polyreactivity |
| QVQLVESGGGLVQAGGSLRLSCAASGRTFRHNAMGWYRQAPGKERELVAAISSSGTNTHYADSVKGRFTISRDNAKNTVYLQMNSLKPEDTAVYYCATVVRSAAYAFDYWGQGTQVTVSS | high polyreactivity |
| QVQLVESGGGLVQAGGSLRLSCAASGRTFRIYAMGWYRQAPGKEREFVAAITWSGGRTYYADSVKGRFTISRDNAKNTVYLQMNSLKPEDTAVYYCAADPTYLRTLRFGSYDYWGQGTQVTVSS | high polyreactivity |
| QVQLVESGGGLVQAGGSLRLSCASSGSILGRYAMGWYRQAPGKERELVAAISGSGGSTYYADSVKGRFTISRDNAKNTVYLQMNSLKPEDTAVYYCAAERFIYYQIFEYWGQGTQVTVSS | high polyreactivity |
| QVQLVESGGGLVQAGGSLRLSCAASGYIFTVYAMGWYRQAPGKERELVAAINWSDGSTYYADSVKGRFTISRDNAKNTVYLQMNSLKPEDTAVYYCATEYWYGIYGYDYWGQGTQVSVSS | high polyreactivity |
| QVQLVESGGGLVQAGGSLRLSCAASGRILPFYAMGWYRQAPGKERELVATISWTSDSTYYADSVKGRFTISRDNAKNTVYLQMNSLKPEDTAVYYCAREYTYTYASTVIYDHWGQGTQVTVSS | low polyreactivity |
| QVQLVESGGGLVQAGGSLRLSCAASGSIFLWNAMGWYRQAPGKERELVAAITWRGGRTSYADSVKGRFTISRDNAKNTVYLQMNSLKPEDTAVYYCAKEAHPPWTGQDVFRSYDYWGQGTQVTVSS | low polyreactivity |
| QVQLVESGGGLVQAGGSLRLSCAASGFTFTLNTMGWYRQAPGKERELVAAISSGGRTYYADSVKGRFTISRDNAKNTVYLQMNSLKPEDTAVYYCAADYTWRFLRFGYWGQGTQVTVSS | high polyreactivity |
| QVQLVESGGGLVQAGGSLRLSCAASGRIFRKNVMGWYRQAPGKERELVATIRTGGTTNYADSVKGRFTISRDNAKNTVYLQMNSLKPEDTAVYYCAADRGGRAGFDYWGQGTQVTVSS | high polyreactivity |
| QVQLVESGGGLVQAGGSLRLSCAASGRIFVKYAMGWYRQAPGKERELVAAITKSGSSTYYADSVKGRFTISRDNAKNTVYLQMNSLKPEDTAVYYCAALTISRSRTGYYWGQGTQVTVSS | low polyreactivity |
| QVQLVESGGGLVQAGGSLRLSCAASGRTLFRYAMGWYRQAPGKERELVAAISRSGGTTYYADSVKGRFTISRDNAKNTVYLQMNSLKPEDTAVYYCAARGRYKDGYRMDYWGQGTQVTVSS | high polyreactivity |
| QVQLVESGGGLVQAGGSLRLSCAASGFTFPSYAMGWYRQAPGKERELVAAISYRGGRTYYADSVKGRFTISRDNAKNTVYLQMNSLKPEDTAVYYCAAKGWYFGYGRYGYWGQGTQVTVSS | high polyreactivity |
| QVQLVESGGGLVQAGGSLRLSCAASGFTSGYNLMGWYRQAPGKERELVAAISWRGTSTYYADSVKGRFTISRDNAKNTVYLQMNSLKPEDTAVYYCAARQRWYWRGYDYWGQGTQVTVSS | high polyreactivity |
| QFQLVESGGCLVQAGGSLRLSCAASGRTFGWYAMGWYRQAPGKERELVAAISTRGTRTYYADSVKGRFTISRDNAKITDYLQMYSLKPEDTAVYYCNAKRRAVTTAHGIPEEDYWGQGTKVTVSS | high polyreactivity |
| QVQLVESGGGLVQAGGSLRLSCAASGSIFYTNAMGWYRQAPGKERELVAAYADSVKGRFTISRDNAKNTVYLQMNSLKPEDTAVYYCNAVLPIYRYLYEGDYWGQGTQVTVSS | low polyreactivity |
| QVQLVESGGGLVQAGGSLRLTCAASGRTFGINAMGWYRQAPGKERELVAAIDSIDGTTYYADSVKGHFTISRDNAKNTVYLPMNRLKPAATAVYYCAAEFISSYDYWGQGTQVTVSS | high polyreactivity |
| QVQLVESGGGLVQAGGSLRLSCAASGSIFWTNAMGWYRQAPGKERELVAAIRVSTGSTYYADSVKGRFTISRDNAKNTVYLQMNSLKPEVTAVYYFAARTYGWGYDYWGQGTQVTVSS | low polyreactivity |
| QVQLVDSGGGLVQAGGSLRLSCAASGRIFYTNAMGWYIQEPGKERELVAAIDYSDSTTYYADSVKGRFTISRDNAKNTVYLQMNSLKPEDTAVYYCAAESYLYTVTFEYWGQGTQVTVSS | high polyreactivity |
| QVQLVESVGGLVQAGGSLRLSCAASGINFGFNTMGWYRQAPGKERELVAAINGSDGSTYADSVKGRFTISRDNAKNTVYLQMNSLKPEDTAVYYCAADAYDGEGTYPFEYWGQGTQVTVSS | low polyreactivity |
| QVQLVESGGGLVQAGGSLRLSCAASGSTFSFYAMGWDRQAPGKERELVAAIRAGTRTYYADSVKGRFTISRDNAKNTVYLQMNSLKPEDTAVYYCAATRRRYPYYYWGQGTLVTVSS | high polyreactivity |
| QVQLVESGGGLVQAGGSLRLSCAASGSTFRYNAMGWYRQAPGKERELVAAITSGGRTTYADSVKGRFTISRDNAKNPVYLQMNSLKPEDTAVYYCAARRYGRNWHYDYWGHGTQVTVSS | high polyreactivity |
| QVQLVESGGGLVQAGGSLRLSCAASGSIFTYYAMGWYRPAPGKERELVAAISSDGSTTYADSVKGRFTISRDNAKNTVYLQMNSLKPEDTAVYYCAASQFYFYYSPDGYDFWGQGTQVTVSS | low polyreactivity |
| QVQLVESGGGLVQAGGRLRLSCAASGFTFKRNAMGWYRQAPGKERELVAAITWSGGSTYYADSVKGRFTISRDNAKNTVYLQMNSLKPEDTAVYYCAALYRSRYYAGDYLGQGTQVTVSS | high polyreactivity |
| QVQLVESGGGLVQAGGSLRLSCAASGRTFVHNAMGWYRQAPGKERELVAVITSGARTTYADSVKGRFTISRDNAKNTVYLQMNSLKPEDTAVYYCAAGTFSVIFSYKYRHYYYWGQGTQVTVSS | low polyreactivity |
| QVQLVESGGGLVQAGGSLRLSCAASGRIIYTYALGWYRQAPGKERELVAAISWSGGSTYYADSVKGRFTISRDNAKNTVYLQMNSLKREDTAVYYCNAAYYGYENLSKRGYWGQGTQVTVSS | high polyreactivity |
| QVQLVESGGGLVQAGGSLRLSCAASGSIFDYYAMGWYRQAPGKERELVATITSGVSTYYADSVKGRFTISRDNAKNTVYLQMNSLKPEDTAVYYCARDYAKSQDLYKYDYWGQGTQVTVSS | low polyreactivity |

— the nanobody polyreactivity screen of Harvey et al. (2022)
